{
  "source": "patent EP1899377B1",
  "about": "(GLAXO GROUP LIMITED, dated 2012)",
  "binders": {"B1": {"name": "H16L13 (antibody, human IgG1, kappa)", "heavy": "not shown", "light": "DIVMTQSPLSLPVTLGQPASISCRSSKSLLYKDGKTYLNWFQQRPGQSPQLLIYLMSTRASGVPDRFSGGGSGTDFTLKISRVEAEDVGVYYCQQLVEYPLTFGQGTKLEIKRTVAAPSVFIFPPSDEQLKSGTASVVCLLNNFYPREAKVQWKVDNALQSGNSQESVTEQDSKDSTYSLSSTLTLSKADYEKHKVYACEVTHQGLSSPVTKSFNRGEC"}, "B2": {"name": "H24L16 (antibody, human IgG1, kappa, V domains shown)", "VH": "QVQLVQSGAEVKKPGASVKVSCKASGYTFTSYWMHWVKQRPGQGLEWIGNINPSNGGTNYNEKFKSKATLTVDTSTSTAYMELSSLRSEDTAVYYCELGQGYWGQGTLVTVSS", "VL": "DIVMTQSPLSNPVTLGQPVSISCRSSKSLLYKDGKTYLNWFLQRPGQSPQLLIYLMSTRASGVPDRFSGGGSGTDFTLKISRVEAEDVGVYYCQQLVEYPLTFGQGTKLEIKR", "notes": "human gamma1 mutated constant region, human kappa"}, "B3": {"name": "H24L13 (antibody, human IgG1, kappa, V domains shown)", "VH": "QVQLVQSGAEVKKPGASVKVSCKASGYTFTSYWMHWVKQRPGQGLEWIGNINPSNGGTNYNEKFKSKATLTVDTSTSTAYMELSSLRSEDTAVYYCELGQGYWGQGTLVTVSS", "VL": "DIVMTQSPLSLPVTLGQPASISCRSSKSLLYKDGKTYLNWFQQRPGQSPQLLIYLMSTRASGVPDRFSGGGSGTDFTLKISRVEAEDVGVYYCQQLVEYPLTFGQGTKLEIKR"}, "B4": {"name": "H19L13 (antibody, human IgG1, kappa, V domains shown)", "VH": "QVQLVQSGAEVKKPGASVKVSCKASGYTFTSYWMHWVRQRPGQGLEWIGNINPSNGGTNYNEKFKSRATMTRDTSTSTAYMELSSLRSEDTAVYYCELGQGYWGQGTLVTVSS", "VL": "DIVMTQSPLSLPVTLGQPASISCRSSKSLLYKDGKTYLNWFQQRPGQSPQLLIYLMSTRASGVPDRFSGGGSGTDFTLKISRVEAEDVGVYYCQQLVEYPLTFGQGTKLEIKR"}, "B5": {"name": "H21L13 (antibody, human IgG1, kappa, V domains shown)", "VH": "QVQLVQSGAEVKKPGASVKVSCKASGYTFTSYWMHWVRQRPGQGLEWIGNINPSNGGTNYNEKFKSKATMTRDTSTSTAYMELSSLRSEDTAVYYCELGQGYWGQGTLVTVSS", "VL": "DIVMTQSPLSLPVTLGQPASISCRSSKSLLYKDGKTYLNWFQQRPGQSPQLLIYLMSTRASGVPDRFSGGGSGTDFTLKISRVEAEDVGVYYCQQLVEYPLTFGQGTKLEIKR"}, "B6": {"name": "H23L13 (antibody, human IgG1, kappa, V domains shown)", "VH": "QVQLVQSGAEVKKPGASVKVSCKASGYTFTSYWMHWVKQRPGQGLEWIGNINPSNGGTNYNEKFKSKATMTVDTSTSTAYMELSSLRSEDTAVYYCELGQGYWGQGTLVTVSS", "VL": "DIVMTQSPLSLPVTLGQPASISCRSSKSLLYKDGKTYLNWFQQRPGQSPQLLIYLMSTRASGVPDRFSGGGSGTDFTLKISRVEAEDVGVYYCQQLVEYPLTFGQGTKLEIKR"}, "B7": {"name": "H22Lc (antibody, human IgG1, kappa, V domains shown)", "VH": "QVQLVQSGAEVKKPGASVKVSCKASGYTFTSYWMHWVKQRPGQGLEWIGNINPSNGGTNYNEKFKSKATMTRDTSTSTAYMELSSLRSEDTAVYYCELGQGYWGQGTLVTVSS", "VL": "DIVITQDELSNPVTSGESVSISCRSSKSLLYKDGKTYLNWFLQRPGQSPQLLIYLMSTRASGVSDRFSGSGSGTDFTLEISRVKAEDVGVYYCQQLVEYPLTFGAGTKLELKR"}, "B8": {"name": "H6L13 (antibody, human IgG1, kappa, V domains shown)", "VH": "QVQLVQSGAEVKKPGASVKVSCKASGYTFTSYWMHWVRQAPGQGLEWIGNINPSNGGTNYNEKFKSRATMTRDTSTSTAYMELSSLRSEDTAVYYCELGQGYWGQGTLVTVSS", "VL": "DIVMTQSPLSLPVTLGQPASISCRSSKSLLYKDGKTYLNWFQQRPGQSPQLLIYLMSTRASGVPDRFSGGGSGTDFTLKISRVEAEDVGVYYCQQLVEYPLTFGQGTKLEIKR"}, "B9": {"name": "H1L11 (antibody, human IgG1, kappa, V domains shown)", "VH": "QVQLVQSGAEVKKPGASVKVSCKASGYTFTSYWMHWVRQAPGQGLEWMGNINPSNGGTNYNEKFKSRVTMTRDTSTSTVYMELSSLRSEDTAVYYCELGQGYWGQGTLVTVSS", "VL": "DIVITQSPLSLPVTLGQPASISCRSSKSLLYKDGKTYLNWFQQRPGQSPQLLIYLMSTRASGVPDRFSGGGSGTDFTLKISRVEAEDVGVYYCQQLVEYPLTFGQGTKLEIKR"}},
  "key": {"GST-human NOGO-A56 [1]": {"biological_target": "T1, GST-human NOGO-A56 (human, UniProt Q9NQC3 586-785)", "T1 construct": "GST-tagged fusion expressed in E. coli BL21 from pGEX-6P1; also called hNOGO; human NOGO 5+6 GST; not shown: Glutathione S-transferase tag encoded by vector pGEX-6P1 (N-terminal, with vector linker)", "T1 sequence": "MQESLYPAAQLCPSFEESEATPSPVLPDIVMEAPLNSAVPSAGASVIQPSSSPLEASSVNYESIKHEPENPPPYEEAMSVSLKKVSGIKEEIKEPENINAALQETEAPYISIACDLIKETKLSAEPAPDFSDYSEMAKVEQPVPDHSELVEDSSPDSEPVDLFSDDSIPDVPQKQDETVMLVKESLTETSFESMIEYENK", "experiment": "SPR (Biacore), GST-human NOGO-A56 immobilised, purified antibody as analyte; single experiment"}, "GST-human NOGO-A56 [2]": {"biological_target": "T1, GST-human NOGO-A56", "experiment": "SPR off-rate ranking, supernatant from small-scale transient transfection over immobilised GST-human NOGO-A56; single experiment"}, "GST-human NOGO-A56 [3]": {"biological_target": "T1, GST-human NOGO-A56", "experiment": "SPR (Biacore), GST-human NOGO-A56 immobilised, purified antibody as analyte; single experiment", "remark": "listed apart in the source"}, "GST-human NOGO-A56 [4]": {"biological_target": "T1, GST-human NOGO-A56", "experiment": "SPR (Biacore), GST-human NOGO-A56 immobilised, purified antibody as analyte; single experiment", "remark": "listed apart in the source"}},
  "note": "Read-outs that look alike come from different tables or passages of the source.",
  "data": [
    {"binder": "B1", "values": [
      {"measurement": "Kd", "setting": "GST-human NOGO-A56 [1]", "result": 2.53, "unit": "nM"},
      {"measurement": "koff", "setting": "GST-human NOGO-A56 [1]", "result": 0.0121, "unit": "s⁻¹"},
      {"measurement": "kon", "setting": "GST-human NOGO-A56 [1]", "result": "4.76e+06", "unit": "M⁻¹ s⁻¹"},
      {"measurement": "koff", "setting": "GST-human NOGO-A56 [2]", "result": 0.0138, "unit": "s⁻¹"}
    ]},
    {"binder": "B2", "values": [
      {"measurement": "Kd", "setting": "GST-human NOGO-A56 [3]", "result": 2.49, "unit": "nM"},
      {"measurement": "koff", "setting": "GST-human NOGO-A56 [3]", "result": 0.00572, "unit": "s⁻¹"},
      {"measurement": "kon", "setting": "GST-human NOGO-A56 [3]", "result": "2.3e+06", "unit": "M⁻¹ s⁻¹"},
      {"measurement": "Kd", "setting": "GST-human NOGO-A56 [4]", "result": 3.7, "unit": "nM"},
      {"measurement": "koff", "setting": "GST-human NOGO-A56 [4]", "result": 0.0069, "unit": "s⁻¹"},
      {"measurement": "kon", "setting": "GST-human NOGO-A56 [4]", "result": "1.9e+06", "unit": "M⁻¹ s⁻¹"},
      {"measurement": "koff", "setting": "GST-human NOGO-A56 [2]", "result": 0.00585, "unit": "s⁻¹"}
    ]},
    {"binder": "B3", "values": [
      {"measurement": "koff", "setting": "GST-human NOGO-A56 [2]", "result": 0.00996, "unit": "s⁻¹"}
    ]},
    {"binder": "B4", "values": [
      {"measurement": "koff", "setting": "GST-human NOGO-A56 [2]", "result": 0.013, "unit": "s⁻¹"}
    ]},
    {"binder": "B5", "values": [
      {"measurement": "koff", "setting": "GST-human NOGO-A56 [2]", "result": 0.012, "unit": "s⁻¹"}
    ]},
    {"binder": "B6", "values": [
      {"measurement": "koff", "setting": "GST-human NOGO-A56 [2]", "result": 0.00956, "unit": "s⁻¹"}
    ]},
    {"binder": "B7", "values": [
      {"measurement": "koff", "setting": "GST-human NOGO-A56 [2]", "result": 0.00467, "unit": "s⁻¹"}
    ]},
    {"binder": "B8", "values": [
      {"measurement": "Kd", "setting": "GST-human NOGO-A56 [3]", "result": 7.76, "unit": "nM"},
      {"measurement": "koff", "setting": "GST-human NOGO-A56 [3]", "result": 0.0157, "unit": "s⁻¹"},
      {"measurement": "kon", "setting": "GST-human NOGO-A56 [3]", "result": "2.02e+06", "unit": "M⁻¹ s⁻¹"},
      {"measurement": "Kd", "setting": "GST-human NOGO-A56 [1]", "result": 8.1, "unit": "nM"},
      {"measurement": "koff", "setting": "GST-human NOGO-A56 [1]", "result": 0.0155, "unit": "s⁻¹"},
      {"measurement": "kon", "setting": "GST-human NOGO-A56 [1]", "result": "1.91e+06", "unit": "M⁻¹ s⁻¹"},
      {"measurement": "Kd", "setting": "GST-human NOGO-A56 [4]", "result": 6.4, "unit": "nM"},
      {"measurement": "koff", "setting": "GST-human NOGO-A56 [4]", "result": 0.014, "unit": "s⁻¹"},
      {"measurement": "kon", "setting": "GST-human NOGO-A56 [4]", "result": "2.2e+06", "unit": "M⁻¹ s⁻¹"}
    ]},
    {"binder": "B9", "values": [
      {"measurement": "Kd", "setting": "GST-human NOGO-A56 [3]", "result": 21, "unit": "nM"},
      {"measurement": "koff", "setting": "GST-human NOGO-A56 [3]", "result": 0.0282, "unit": "s⁻¹"},
      {"measurement": "kon", "setting": "GST-human NOGO-A56 [3]", "result": "1.34e+06", "unit": "M⁻¹ s⁻¹"},
      {"measurement": "Kd", "setting": "GST-human NOGO-A56 [1]", "result": 18.4, "unit": "nM"},
      {"measurement": "koff", "setting": "GST-human NOGO-A56 [1]", "result": 0.0219, "unit": "s⁻¹"},
      {"measurement": "kon", "setting": "GST-human NOGO-A56 [1]", "result": "1.19e+06", "unit": "M⁻¹ s⁻¹"},
      {"measurement": "Kd", "setting": "GST-human NOGO-A56 [4]", "result": 22.3, "unit": "nM"},
      {"measurement": "koff", "setting": "GST-human NOGO-A56 [4]", "result": 0.031, "unit": "s⁻¹"},
      {"measurement": "kon", "setting": "GST-human NOGO-A56 [4]", "result": "1.4e+06", "unit": "M⁻¹ s⁻¹"},
      {"measurement": "koff", "setting": "GST-human NOGO-A56 [2]", "result": 0.0196, "unit": "s⁻¹"}
    ]}
  ]
}
